# According to patent US5705334:
# Tests used:
# [1] = system: HMG1; experiment: inhibition; conditions: cisplatin 1,2-d(GpG) intrastrand crosslink at a defined site; 1 uM protein; 20% at 0.5 uM; HeLa extract excinuclease, 30 C; EMSA also run at 1-8 uM but result not stated
# [2] = system: h-mtTFA (human mitochondrial transcription factor A) (Homo sapiens); experiment: inhibition; conditions: 1 uM protein, HeLa extract excinuclease, 30 C
Substance,activity (% inhibition of repair) [1],"activity (% inhibition of repair) ([2]; cisplatin 1,2-d(GpG) intrastrand crosslink at a defined site, 95% at 0.5 uM, 8 mM MgCl2, 2 mM ATP)","activity (% inhibition of repair) ([2]; cisplatin 1,3-d(GpTpG) intrastrand crosslink at a defined site, 40% at 0.5 uM)"
"156 bp DNA with site-specific cisplatin 1,2-d(GpG) intrastrand adduct",40,100,–
"156 bp DNA with site-specific cisplatin 1,3-d(GpTpG) intrastrand adduct",–,–,75
